The target of test [1] is T1, mature CIS43 antibody (IgG).
T1 construct: also called CIS43 WT
The test can be described thus: competition ELISA (MSD): peptide pre-incubated with CIS43, read-out CIS43 bound to plate-bound rPfCSP. On the technique in general: An ELISA detects its analyte on a solid surface through an enzyme-linked reagent.
Protocol: Peptides were all 15 amino acids in length, overlapping by 11 residues, and numbered according to their position on the protein. Briefly, streptavidin-coated plates (Meso Scale Discovery, MSD) were blocked with 5% BSA in PBS for 30 min at room temperature (RT), washed five times (wash buffer, 0.05% Tween-20 in PBS), then coated with biotinylated-recombinant PfCSP (0.2 μg/mL, Genscript) in PBS with 1% BSA, and allowed to incubate for 1 h at RT. […] Plates were incubated for 1 h at RT, washed five times, then incubated for an additional 1 h at RT with 1 μg/mL of appropriate secondary (either anti-human or anti-mouse) IgG SULFO-TAG (Meso Scale Discovery) in PBS with 1% BSA/0.05% Tween-20. After washing, plates were read using 1×MSD Read T Buffer (Meso Scale Discovery) on an MSD SECTOR © Imager 6000 instrument.

Test [2] deals with T2, peptide NANP5, penta-NANP repeat (not fully specified; biotinylated).
T2 construct: Printed only as the formula (NANP)5 / NANP5
T2 peptide: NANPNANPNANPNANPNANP
The test is described as follows: BLI (Octet), Fab on biotinylated NANP5 peptide. A general note: BLI is a label-free optical method that tracks binding on a fibre tip over time.
Protocol: (§1) Affinity measurements by BLI. Antibody Fab binding affinity to various ligands were measured using biolayer interferometry on an Octet Red384 instrument (fortdBio) with streptavidin capture biosensors (fortdBio) in solid black tilt-well 96-well plates (Geiger Bio-One). Assays were performed with agitation at 25° C. […] In all Octet measurements, parallel correction to subtract systematic baseline drift was carried out by subtracting the measurements recorded for a loaded sensor incubated in PBS. Data analysis was carried out using Octet software, version 9.0. Experimental data were fitted globally with a 1:1 Langmuir model of binding.

For test [3], the target named is T3, recombinant Plasmodium falciparum circumsporozoite protein (rPfCSP), biotinylated (Plasmodium falciparum, UniProt P19597 21-375). The test can be described thus: BLI (Octet), Fab on biotinylated rPfCSP; 2-component fit, primary KD.
T3 sequence (P19597 21-375 limits assumed): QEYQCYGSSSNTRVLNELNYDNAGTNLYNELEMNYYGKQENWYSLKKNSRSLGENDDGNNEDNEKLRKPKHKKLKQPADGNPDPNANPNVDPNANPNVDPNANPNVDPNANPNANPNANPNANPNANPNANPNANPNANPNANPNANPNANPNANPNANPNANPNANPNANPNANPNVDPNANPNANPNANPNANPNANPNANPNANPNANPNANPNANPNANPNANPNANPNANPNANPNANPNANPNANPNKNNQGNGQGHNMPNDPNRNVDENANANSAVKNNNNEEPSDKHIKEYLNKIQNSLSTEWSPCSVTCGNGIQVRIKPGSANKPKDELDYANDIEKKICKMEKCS
Protocol: as §1
Test [4] concerns the target T3, recombinant Plasmodium falciparum …. The test can be described thus: BLI (Octet), Fab on biotinylated rPfCSP; 2-component fit, second KD (KD2).
Protocol: as §1
In a further test the target is T4, NPDP19-KLH conjugate (Plasmodium falciparum, also: conjugated to KLH carrier via maleimide linker, site not given here).
T4 construct: not shown: KLH carrier protein (about 390 kDa)
T4 peptide: KQPADGNPDPNANPNVDPN
The test can be described thus: ELISA on NPDP19-KLH.

No end group written: not given here.

For orientation: Kd means the equilibrium constant for the complex coming apart.

T1 sequence (heavy, as listed by the source, chain 1 of 2): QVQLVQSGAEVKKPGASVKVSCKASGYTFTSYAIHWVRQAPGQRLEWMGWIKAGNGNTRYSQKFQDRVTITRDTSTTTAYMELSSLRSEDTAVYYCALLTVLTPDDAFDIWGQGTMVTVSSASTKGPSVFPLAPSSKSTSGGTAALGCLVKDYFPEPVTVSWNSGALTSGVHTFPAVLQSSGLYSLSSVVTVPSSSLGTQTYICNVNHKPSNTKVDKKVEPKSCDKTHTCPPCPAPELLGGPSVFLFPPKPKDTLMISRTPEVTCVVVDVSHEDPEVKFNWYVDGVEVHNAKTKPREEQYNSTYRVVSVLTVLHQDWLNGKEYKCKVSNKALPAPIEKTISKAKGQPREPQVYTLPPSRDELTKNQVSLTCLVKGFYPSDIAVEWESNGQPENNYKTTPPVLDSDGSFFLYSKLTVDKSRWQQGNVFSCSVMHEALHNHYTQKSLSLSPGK
T1 sequence (light, as listed by the source, chain 2 of 2): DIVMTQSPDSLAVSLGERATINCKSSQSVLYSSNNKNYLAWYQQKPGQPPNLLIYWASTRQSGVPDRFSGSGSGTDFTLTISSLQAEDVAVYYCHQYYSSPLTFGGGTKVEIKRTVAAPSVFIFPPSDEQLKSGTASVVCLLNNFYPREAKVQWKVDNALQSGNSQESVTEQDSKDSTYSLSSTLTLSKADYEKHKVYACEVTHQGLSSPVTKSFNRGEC

In the case of NANPNVDPNANPNAN (also called PfCSP peptide 44) [44: NANPNVDPNANPNAN], the binding result in test [1] is “binds”.

B1: iGL-CIS43-HL.K28.m43.151 Fab (Fab, V domains shown)
VH: QVHLVQSGAEVKKPGASVKVSCKASGYTFTSYAIHWVRQAPGQRLEWMGWIKGGNGNTRYSQKFQDRVTITRDTSASTAYMELSSLRSEDTAVYYCALLTVITPDDAFDIWGQGTMVTVSS
VL: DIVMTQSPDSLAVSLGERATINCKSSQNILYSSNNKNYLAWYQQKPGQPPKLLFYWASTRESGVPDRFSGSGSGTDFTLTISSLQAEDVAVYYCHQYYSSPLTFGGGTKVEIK
notes: also called m43_HH28K.17
For B1, the dissociation constant (Kd) in test [2] was 715 nM; in test [3], 38.3 nM; in test [4] it was 1700 nM.

B2: iGL-CIS43-HL.K28.m42.127 Fab (Fab, V domains shown)
VH: QVQLVQSGAEVKKPGASVKVSCKASGYTFTSYAIHWVRQAPGQRLEWMGWIKAGNGNTRYSQKFQDRVTITRDTSASTAYMELSSLRSEDTAVYYCALLTVITPDDTFDIWGQGTMVTVSS
VL: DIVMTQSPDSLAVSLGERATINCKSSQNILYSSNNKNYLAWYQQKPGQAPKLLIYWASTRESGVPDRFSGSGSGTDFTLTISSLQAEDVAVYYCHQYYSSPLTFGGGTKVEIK
notes: also called m42_HH28K.13
As to B2, the values for the dissociation constant Kd in test [2], in test [3] and in test [4] were 952 nM, 31.6 nM and 1980 nM, respectively.

B3: m43.160 Fab (Fab, V domains shown)
VH: QVQLVQSGAEVKKPGASVKVSCKASGYTFTSYAIHWVRQAPGQRLEWMGWIKAGNGNTRYSQKFQGRVTITRDTSASTAYMELSSLRSEDTAGYYCALLTVITPDDAFDIWGQGTMVTVSS
VL: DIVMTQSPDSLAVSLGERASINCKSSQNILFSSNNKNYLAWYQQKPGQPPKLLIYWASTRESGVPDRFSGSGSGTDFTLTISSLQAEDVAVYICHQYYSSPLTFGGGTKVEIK
notes: also called m43_HH28K.26
Regarding B3, the dissociation constant Kd was 957 nM in test [2], 36.8 nM in test [3] and 1820 nM in test [4].

B4: mature CIS43 Fab (Fab, V domains shown)
VH: QVQLVQSGAEVKKPGASVKVSCKASGYTFTSYAIHWVRQAPGQRLEWMGWIKAGNGNTRYSQKFQDRVTITRDTSTTTAYMELSSLRSEDTAVYYCALLTVLTPDDAFDIWGQGTMVTVSS
VL: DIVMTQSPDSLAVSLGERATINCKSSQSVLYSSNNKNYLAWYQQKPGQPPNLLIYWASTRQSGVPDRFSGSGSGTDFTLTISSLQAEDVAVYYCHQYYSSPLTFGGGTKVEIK
notes: also called CIS43 mature; CIS43 WT
As for B4, the dissociation constant Kd in test [2] stood at 411 nM; in test [3], 45.2 nM; in test [4] it was 1330 nM.

B5: inferred germline CIS43 (iGL-CIS43) Fab (Fab, V domains shown)
VH: QVQLVQSGAEVKKPGASVKVSCKASGYTFTSYAMHWVRQAPGQRLEWMGWINAGNGNTKYSQKFQGRVTITRDTSASTAYMELSSLRSEDTAVYYCALLTVVTPDDAFDIWGQGTMVTVSS
VL: not shown
notes: also called CIS43 gHgL; iGL-CIS43_UCA
For B5, the Kd came out at 9650 nM in test [2], 679 nM in test [3] and 5050 nM in test [4].

B6: inferred germline CIS43 (iGL-CIS43) mAb (IgG) (antibody, V domains shown)
VH: QVQLVQSGAEVKKPGASVKVSCKASGYTFTSYAMHWVRQAPGQRLEWMGWINAGNGNTKYSQKFQGRVTITRDTSASTAYMELSSLRSEDTAVYYCALLTVVTPDDAFDIWGQGTMVTVSS
VL: not shown
notes: as for B5
As for B6, the binding result in the test with NPDP19-KLH conjugate is on record as “binds”.

As for NANPNANPNVDPNAN (also called PfCSP peptide 43) [43: NANPNANPNVDPNAN], the binding result in test [1] is on record as “binds”.

On to NVDPNANPNANPNAN (also called PfCSP peptide 27) [27: NVDPNANPNANPNAN], for which, in test [1], the binding result was “binds”.
